From patent US20230235075A1 (DYNAMICURE BIOTECHNOLOGY, published 2023)

T1: Human CD93 on the cell surface (human CD93 expressing CHO cells; HUVEC, U937 and KG1a cells) (human, UniProt Q9NPY3 22-652)
T1 construct: whole, on cells; also called hCD93 CHO cells; CHO-hCD93
T1 sequence (looked up): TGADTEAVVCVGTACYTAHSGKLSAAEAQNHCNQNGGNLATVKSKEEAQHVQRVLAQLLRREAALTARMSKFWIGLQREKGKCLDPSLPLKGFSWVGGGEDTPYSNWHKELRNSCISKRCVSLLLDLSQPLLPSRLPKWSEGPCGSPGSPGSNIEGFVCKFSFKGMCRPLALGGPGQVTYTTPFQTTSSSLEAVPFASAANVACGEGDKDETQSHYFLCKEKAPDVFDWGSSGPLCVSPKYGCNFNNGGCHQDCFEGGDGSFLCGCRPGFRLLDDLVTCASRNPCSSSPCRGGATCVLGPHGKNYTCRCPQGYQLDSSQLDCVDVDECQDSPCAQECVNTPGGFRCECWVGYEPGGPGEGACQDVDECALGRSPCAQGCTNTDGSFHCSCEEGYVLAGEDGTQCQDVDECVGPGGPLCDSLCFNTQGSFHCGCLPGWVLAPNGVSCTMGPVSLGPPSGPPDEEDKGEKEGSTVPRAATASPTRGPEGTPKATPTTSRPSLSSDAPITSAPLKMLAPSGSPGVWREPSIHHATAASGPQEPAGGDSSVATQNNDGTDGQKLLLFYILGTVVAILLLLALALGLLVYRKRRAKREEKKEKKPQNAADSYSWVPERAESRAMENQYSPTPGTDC

T2: Human CD93 recombinant protein (Sino Biological Inc, Catalog #12589-H08H) (human, UniProt Q9NPY3 22-580, biotinylated with EZ-LINK NHS-PEG4 biotin in the Octet assays)
T2 construct: also called hCD93; His-tagged human CD93
T2 sequence (looked up): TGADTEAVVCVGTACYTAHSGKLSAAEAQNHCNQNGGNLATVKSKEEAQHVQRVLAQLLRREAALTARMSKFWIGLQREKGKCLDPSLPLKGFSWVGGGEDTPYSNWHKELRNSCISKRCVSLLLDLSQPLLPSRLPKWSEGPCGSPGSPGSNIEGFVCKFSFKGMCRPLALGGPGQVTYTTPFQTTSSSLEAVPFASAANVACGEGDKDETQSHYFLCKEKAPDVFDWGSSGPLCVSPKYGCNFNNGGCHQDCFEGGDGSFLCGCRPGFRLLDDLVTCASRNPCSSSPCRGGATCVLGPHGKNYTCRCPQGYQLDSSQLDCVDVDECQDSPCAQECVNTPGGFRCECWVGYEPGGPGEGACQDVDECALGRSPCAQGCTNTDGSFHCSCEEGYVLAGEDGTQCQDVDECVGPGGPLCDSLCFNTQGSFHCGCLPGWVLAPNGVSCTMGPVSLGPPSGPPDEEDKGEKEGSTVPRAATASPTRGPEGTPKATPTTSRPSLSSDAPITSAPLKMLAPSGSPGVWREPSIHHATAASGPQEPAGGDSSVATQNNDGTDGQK

B1: Humanized 17B10 H1L1 (antibody, mouse IgG1, V domains shown)
VH: QVQLVQSGAEVKKPGSSVKVSCKASGYAFSSYWLNWVRQAPGQGLEWFGRIYPGDGDTDYNGKFKGRVTLTADKSTSTAYMELSSLRSEDTAVYFCVRGDGYWAMDYWGQGTTVTVSS
VL: DIVMTQSPLSLPVTPGEPASISCRFSQSLLHSNGITYLYWYLQKPGQSPQLLIYQMSNLASGVPDRFSGSGSGTDFTLKISRVEAEDVGVYYCAQNLELPWTFGGGTKLEIK
notes: Chimeric Fc: mouse IgG1 CH2 and CH3 domains and human CH1 domains
B2: Humanized 17B10 H3L1 (antibody, mouse IgG1, V domains shown)
VH: QVQLVQSGPEVKKPGESLKISCKASGYAFSSYWLNWVRQMPGKGLEWMGRIYPGDGDTDYNGKFKGQVTISADKSSGTAYLQLSSLKASDTAVYFCVRGDGYWAMDYWGQGTLVTVSS
VL: DIVMTQSPLSLPVTPGEPASISCRFSQSLLHSNGITYLYWYLQKPGQSPQLLIYQMSNLASGVPDRFSGSGSGTDFTLKISRVEAEDVGVYYCAQNLELPWTFGGGTKLEIK
B3: Humanized 17B10 H1L3 (antibody, mouse IgG1, V domains shown)
VH: QVQLVQSGAEVKKPGSSVKVSCKASGYAFSSYWLNWVRQAPGQGLEWFGRIYPGDGDTDYNGKFKGRVTLTADKSTSTAYMELSSLRSEDTAVYFCVRGDGYWAMDYWGQGTTVTVSS
VL: DIVMTQSPDSLAVSLGERATINCRFSKSLLHSNGITYLYWYQQKPGQPPKLLIYQMSNLASGVPDRFSGSGSGTDFTLTISSLQAEDVAVYYCAQNLELPWTFGGGTKLEIK
B4: Humanized 17B10 H2L1 (antibody, mouse IgG1, V domains shown)
VH: QVQLVQSGAEVVKSGASVKVSCKASGYAFSSYWLNWVRQAPGQGLEWFGRIYPGDGDTDYNGKFKGRVTLIRDTSTSTVYMELTSLTSEDTAVYYCVRGDGYWAMDYWGQGTLVTVSS
VL: DIVMTQSPLSLPVTPGEPASISCRFSQSLLHSNGITYLYWYLQKPGQSPQLLIYQMSNLASGVPDRFSGSGSGTDFTLKISRVEAEDVGVYYCAQNLELPWTFGGGTKLEIK
B5: Humanized 17B10 H3L2 (antibody, mouse IgG1, V domains shown)
VH: QVQLVQSGPEVKKPGESLKISCKASGYAFSSYWLNWVRQMPGKGLEWMGRIYPGDGDTDYNGKFKGQVTISADKSSGTAYLQLSSLKASDTAVYFCVRGDGYWAMDYWGQGTLVTVSS
VL: DIVMTQTPLSLPVTPGEPASISCRFSQSLLHSNGITYLYWYLQKPGQSPQLLIYTMSNLASGVPDRFSGSGSGTDFTLKISRVEAEDVGVYYCAQNLELPWTFGGGTKLEIK
B6: Humanized 17B10 H1L2 (antibody, mouse IgG1, V domains shown)
VH: QVQLVQSGAEVKKPGSSVKVSCKASGYAFSSYWLNWVRQAPGQGLEWFGRIYPGDGDTDYNGKFKGRVTLTADKSTSTAYMELSSLRSEDTAVYFCVRGDGYWAMDYWGQGTTVTVSS
VL: DIVMTQTPLSLPVTPGEPASISCRFSQSLLHSNGITYLYWYLQKPGQSPQLLIYTMSNLASGVPDRFSGSGSGTDFTLKISRVEAEDVGVYYCAQNLELPWTFGGGTKLEIK
B7: Humanized 17B10 H2L3 (antibody, mouse IgG1, V domains shown)
VH: QVQLVQSGAEVVKSGASVKVSCKASGYAFSSYWLNWVRQAPGQGLEWFGRIYPGDGDTDYNGKFKGRVTLIRDTSTSTVYMELTSLTSEDTAVYYCVRGDGYWAMDYWGQGTLVTVSS
VL: DIVMTQSPDSLAVSLGERATINCRFSKSLLHSNGITYLYWYQQKPGQPPKLLIYQMSNLASGVPDRFSGSGSGTDFTLTISSLQAEDVAVYYCAQNLELPWTFGGGTKLEIK
B8: 5H9 (antibody, IgG2a, V domains shown)
VH: QVQLQQSGPDLVKPGASVKISCKASGYAFSTYWMNWVKQRPGKGLEWIGRIFPGDGDANYNGKFKGKATLTADKSSSTAYMQLSSLTSEDSAVYFCTRTGAAYDFDPFPYWGQGTLVTVSA
VL: DIVMTQAAFSNPVTLGTSASISCSSSKSLLHSNGVTYLYWYLQRPGQSPQLLIYRMSNLASGVPDRFSGSGSGTDFTLRISRVEAEDVGIYYCAQMLERPFTFGSGTKLEIK
notes: also called 5H9 mIgG2a
B9: 17A7 (antibody, V domains shown)
VH: QVQLQQSGPELVKPGASVKISCKGSGYAFSTYWMNWVKQRPGKGLEWIGRIFPGDGDTDYDGKFKGKATLTADKSSNTAYMQLSSLTSEDSAVYFCARTGAAYEFDPFPYWGQGTLVTVSA
VL: DIVMTQAAFSNPVTLGTSASISCSSTKSLLHSSGITYLYWYLQRPGQSPQLLIYRMSNLASGVPDRFSGSGSGTDFTLRISRVEAEDVGVYYCAQMLERPFTFGSGTKLEIK
notes: Mouse hybridoma monoclonal antibody
B10: 20C7 (antibody, V domains shown)
VH: EVQLQQSGPELVNPGASVKMSCKASGYTFTAYVMHWVKQKPGQGLEWIGYIFPYNDGTEYNEKFKGKATLTSDKSSSTAYMELSSLTSEDSAVYYCARRTDGNPYTMDYWGQGTSVTVSS
VL: DIVMTQSHKFMSTSVGDRVSITCKASQDVSTAVAWYQQKPGQSPKLLIHSASYRYTGVPDRFTGRGSGTDFTFTISSVQAEDLAVYYCQQHYSTPFTFGSGTKLEIK
notes: as for B9
B11: 17E6 (antibody, V domains shown)
VH: EVQLQQSGPELVKPGASVKMSCKASGYTFTSYVIHWVKQKPGQGLEWIGYINPYSDYTQYNEKFKGKATLTSDKSSSTAYMELSSLTSEDSAVYSCARRADGNPYAMDYWGQGTSVTVSS
VL: DIVMTQSHKFMSTSVGDRVSTTCKASQDVSTAVVWYQQKPGQSPKLLIYSASYRYTGVPDRFTGSGSGTDFTFTITSVQAEDLAVYYCQQHYSTPFTFGSGTKLEIK
notes: as for B9
B12: 19E12 (antibody, V domains shown)
VH: QVQLQQSGAELVRPGASVKLSCKASGYTFTDYEMHWVRQTPVHGLEWIGGIDPETGGTAYNQKFKGKATLTADKSSSTAYMELRSLTSEDSAVYYCTRGAWFAYWGQGTLVTVSA
VL: QAVVTQESALTTSPGETVTLTCRSSTGAVTTSNSANWVQEKPDHLFTGLIGGTNNRAPGVPARFSGSLIGDKAALTITGAQTEDEAIYFCALWYNNHFVFGGGTKLTVL
notes: as for B9
B13: 16G9 (antibody, V domains shown)
VH: EVQLQQSGPELVKPGASVKMSCKASGYTFTDYYMNWVKQSHGKSLEWIGRVNPNNGGKTYNQKFKGKATLTVDKSLSTAYMQLNSLTSEDSAVYYCARWRLRPVDYGMDYWGQGTSVTVSS
VL: DIVLTQSPASLAVSLGQRATISCRASQSVSTSSYSYMHWYQQKPGQPPKLLIKYASNLESGVPARFSGSGSGTDFTLNIHPVEEEDTATYYCQHSWEIPFTFGSGTKLEIK
notes: as for B9
B14: 12H4 (antibody, V domains shown)
VH: EVQLQQSGPELVKPGASVKVSCKASGYTFTDYYIHWVKQRPGQGLEWIGEIYPGSDDAYYNEKFKGKATLTADKSSSTAYMQLSSLTSEDSAVYFCTRETTATAYWGQGTLVTVSA
VL: QIVLTQSPAIMSASPGEKVTITCSASSSVSLIYWFQQKPGTSPKLWIYSTSNLASGVPARFSGSGSGTSYSLTISRMEAEDAATYYCQQRSGYPPTFGGGTKLEIK
notes: as for B9
B15: 19B5 (antibody, V domains shown)
VH: DVNLVESGGGLVKLGGSLKLSCAASGFTFSNYYMSWVRQSPEKRLEWVATISNNGDSTYYLDTVKGRFTISRDSAENTLYLQMSSLISEDTAVYYCTRVGTGFTYWGQGTLVTVSA
VL: DIVLTQSPATLSVTPGDSVSLSCRASQSINNYLHWYQQRSHESPRLLIKFASQSISDIPSRFSGSGSGTDFTLSINSIETEDFGMYFCQQSNSWPLTFGAGTKLELK
notes: as for B9

target: T1, Human CD93 on the cell surface (human …); assay: FACS, CHO cells overexpressing human CD93

Binding result, binds:
B1, B2, B3, B4, B5, B6, B7

target: T1, Human CD93 on the cell surface (human …); assay: summary table, column 'Binding' (assay not given)

Binding result, binds:
B8, B9, B10, B11, B12, B13, B14, B15

target: T2, Human CD93 recombinant protein (Sino …); assay: Octet epitope binning on biotinylated human CD93, antibody 10 µg/ml
Procedure: Anti-CD93 antibody epitope bins were determined using Octet QKe (Fortebio). Human CD93 recombinant protein (Sino Biological Inc, Catalog #12589-H08H) were biotinylated using EZ-LINK NHS-PEG4 biotin (Thermo Fisher Scientific). Streptavidin biosensors tips (Fortebio) were used to capture biotinylated human CD93 protein (300 seconds in 5 μg/ml). The baseline was stabilized for 60 seconds in 1× kinetics buffer (Fortebio) before primary anti-CD93 antibodies (10 μg/ml) were allowed to associate for 300 seconds with captured protein. A panel of secondary anti-CD93 antibodies (10 μg/ml) were then allowed to associate with the antigen and primary antibody complex for additional 300 seconds. Signals were recorded for each binding event and data analysis was performed on ForteBio Data Analysis HT 11.1 software.

Binding result, binds:
B8, B12, B13
